Measurements from PMC11074299.

Target: T1, wild-type full-length FADD (FADD^FuL) (human), Q13158
T1 chain: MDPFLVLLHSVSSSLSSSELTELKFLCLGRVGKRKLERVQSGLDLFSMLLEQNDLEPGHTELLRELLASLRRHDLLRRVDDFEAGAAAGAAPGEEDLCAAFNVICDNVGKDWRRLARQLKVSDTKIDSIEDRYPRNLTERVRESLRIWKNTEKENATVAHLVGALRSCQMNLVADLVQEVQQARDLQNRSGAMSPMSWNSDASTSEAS
Assay: cryo-EM structure; FA^FuL-C8^FuL_FGLG_CADA-CF complex; Complex A without cross-linking (7.5 Å) and Complex B stabilised by GraFix, glutaraldehyde (3.7 Å); Casp-8 protease domain and FADD DD not visible
Conditions: remark: other sources report otherwise

B1: wild-type full-length FADD (FADD^FuL), Q13158 1-208 (natural protein)
chain: MDPFLVLLHSVSSSLSSSELTELKFLCLGRVGKRKLERVQSGLDLFSMLLEQNDLEPGHTELLRELLASLRRHDLLRRVDDFEAGAAAGAAPGEEDLCAAFNVICDNVGKDWRRLARQLKVSDTKIDSIEDRYPRNLTERVRESLRIWKNTEKENATVAHLVGALRSCQMNLVADLVQEVQQARDLQNRSGAMSPMSWNSDASTSEAS
A stoichiometry N of 3 was found for B1 in this work.
